Assay results from the supplement of paper PMC10065799, “High-throughput profiling of sequence recognition by tyrosine kinases and SH2 domains using bacterial peptide display” (eLife, 2023).

Columns and labels:
c-Src SH2 = assay: SH2 binding enrichment of the phosphorylated peptide, bacterial display (enrichment ratio); higher = better substrate or ligand; peptides without Tyr show the background
Grb2 SH2 = Grb2 SH2 (UniProt P62993); assay: as above
SHP2-C SH2 = assay: as above
EPHB2 = EPHB2 (UniProt P29323); assay: phosphorylation enrichment, bacterial display (enrichment ratio); higher = better substrate or ligand; peptides without Tyr show the background
Sequence of EPHB2 (P29323 whole entry, looked up): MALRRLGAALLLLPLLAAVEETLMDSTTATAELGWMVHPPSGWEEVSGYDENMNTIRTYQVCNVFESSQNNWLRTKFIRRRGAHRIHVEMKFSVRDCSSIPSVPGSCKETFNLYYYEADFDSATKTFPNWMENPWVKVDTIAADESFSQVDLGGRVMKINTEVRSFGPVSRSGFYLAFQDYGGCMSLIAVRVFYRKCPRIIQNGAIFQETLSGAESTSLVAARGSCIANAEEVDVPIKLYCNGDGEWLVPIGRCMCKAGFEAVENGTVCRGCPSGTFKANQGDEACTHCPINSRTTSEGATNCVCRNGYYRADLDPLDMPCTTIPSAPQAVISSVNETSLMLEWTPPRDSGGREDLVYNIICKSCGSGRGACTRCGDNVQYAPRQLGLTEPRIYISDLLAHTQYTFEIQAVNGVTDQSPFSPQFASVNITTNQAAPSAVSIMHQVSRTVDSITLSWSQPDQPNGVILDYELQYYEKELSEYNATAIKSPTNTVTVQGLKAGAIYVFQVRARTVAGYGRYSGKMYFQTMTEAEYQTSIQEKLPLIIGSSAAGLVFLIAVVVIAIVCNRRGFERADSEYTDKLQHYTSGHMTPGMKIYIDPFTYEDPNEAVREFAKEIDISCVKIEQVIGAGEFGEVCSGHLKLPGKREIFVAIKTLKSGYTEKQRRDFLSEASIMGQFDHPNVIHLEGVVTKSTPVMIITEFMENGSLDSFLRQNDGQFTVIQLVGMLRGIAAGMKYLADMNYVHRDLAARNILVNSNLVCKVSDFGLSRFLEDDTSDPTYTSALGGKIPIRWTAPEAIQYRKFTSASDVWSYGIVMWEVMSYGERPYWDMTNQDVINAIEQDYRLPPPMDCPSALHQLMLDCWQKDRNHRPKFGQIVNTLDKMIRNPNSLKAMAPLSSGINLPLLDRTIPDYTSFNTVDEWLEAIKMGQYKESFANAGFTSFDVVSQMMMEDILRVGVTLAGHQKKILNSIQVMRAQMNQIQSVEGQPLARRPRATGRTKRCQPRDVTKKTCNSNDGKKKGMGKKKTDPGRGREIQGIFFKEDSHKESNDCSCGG

c-Src = assay: as above
FGFR1 = FGFR1 (UniProt P11362); assay: as above
Sequence of FGFR1 (P11362 whole entry, looked up): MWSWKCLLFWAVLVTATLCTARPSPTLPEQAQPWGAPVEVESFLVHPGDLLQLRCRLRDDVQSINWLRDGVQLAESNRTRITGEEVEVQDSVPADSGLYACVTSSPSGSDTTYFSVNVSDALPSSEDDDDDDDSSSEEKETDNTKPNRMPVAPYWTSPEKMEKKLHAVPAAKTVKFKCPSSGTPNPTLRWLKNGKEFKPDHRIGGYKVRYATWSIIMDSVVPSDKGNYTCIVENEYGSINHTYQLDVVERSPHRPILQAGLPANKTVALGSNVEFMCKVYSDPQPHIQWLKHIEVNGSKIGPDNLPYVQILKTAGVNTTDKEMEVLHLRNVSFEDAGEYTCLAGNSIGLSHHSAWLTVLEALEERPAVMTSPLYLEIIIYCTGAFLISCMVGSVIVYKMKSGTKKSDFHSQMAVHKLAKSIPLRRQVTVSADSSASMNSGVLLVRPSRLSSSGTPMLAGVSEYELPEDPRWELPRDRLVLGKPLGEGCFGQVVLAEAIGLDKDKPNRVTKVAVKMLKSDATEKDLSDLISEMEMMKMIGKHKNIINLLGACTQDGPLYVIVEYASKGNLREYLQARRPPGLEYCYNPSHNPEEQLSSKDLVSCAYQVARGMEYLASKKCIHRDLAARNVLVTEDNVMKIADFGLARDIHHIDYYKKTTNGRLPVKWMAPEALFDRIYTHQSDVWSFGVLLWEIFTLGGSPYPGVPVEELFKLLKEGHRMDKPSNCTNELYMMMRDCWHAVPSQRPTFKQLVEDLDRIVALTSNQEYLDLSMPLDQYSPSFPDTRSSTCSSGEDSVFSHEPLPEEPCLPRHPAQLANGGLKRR

EPHB1 = EPHB1 (UniProt P54762); assay: as above
Sequence of EPHB1 (P54762 whole entry, looked up): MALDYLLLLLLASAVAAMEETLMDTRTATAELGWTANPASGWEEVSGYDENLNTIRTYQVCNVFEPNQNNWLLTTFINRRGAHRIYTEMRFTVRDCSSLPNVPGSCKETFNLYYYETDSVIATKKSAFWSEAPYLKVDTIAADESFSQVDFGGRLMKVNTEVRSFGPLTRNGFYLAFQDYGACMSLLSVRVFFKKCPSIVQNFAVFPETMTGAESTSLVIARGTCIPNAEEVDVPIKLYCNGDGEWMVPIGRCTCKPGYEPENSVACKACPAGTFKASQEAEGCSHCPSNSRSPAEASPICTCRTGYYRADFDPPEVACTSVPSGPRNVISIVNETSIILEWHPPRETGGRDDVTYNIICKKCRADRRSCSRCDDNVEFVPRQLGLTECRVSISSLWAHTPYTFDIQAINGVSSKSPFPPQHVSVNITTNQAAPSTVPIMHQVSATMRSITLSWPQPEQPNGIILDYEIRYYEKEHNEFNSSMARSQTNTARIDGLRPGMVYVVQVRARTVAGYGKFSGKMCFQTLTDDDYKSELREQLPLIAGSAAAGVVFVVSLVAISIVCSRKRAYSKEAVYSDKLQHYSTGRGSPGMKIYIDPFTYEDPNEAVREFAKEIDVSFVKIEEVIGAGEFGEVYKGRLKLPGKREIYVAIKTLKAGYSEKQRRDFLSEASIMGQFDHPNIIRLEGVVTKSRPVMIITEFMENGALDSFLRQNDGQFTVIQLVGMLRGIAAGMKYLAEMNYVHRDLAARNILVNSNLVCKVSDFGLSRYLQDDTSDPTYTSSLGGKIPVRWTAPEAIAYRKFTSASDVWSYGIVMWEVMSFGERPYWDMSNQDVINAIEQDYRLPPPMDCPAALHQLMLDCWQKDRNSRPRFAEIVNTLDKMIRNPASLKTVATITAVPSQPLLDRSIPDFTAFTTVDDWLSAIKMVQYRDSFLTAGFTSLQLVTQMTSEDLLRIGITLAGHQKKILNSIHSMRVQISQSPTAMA

AncSZ = assay: as above
Hck = Hck (UniProt P08631); assay: as above
Sequence of Hck (P08631 whole entry, looked up): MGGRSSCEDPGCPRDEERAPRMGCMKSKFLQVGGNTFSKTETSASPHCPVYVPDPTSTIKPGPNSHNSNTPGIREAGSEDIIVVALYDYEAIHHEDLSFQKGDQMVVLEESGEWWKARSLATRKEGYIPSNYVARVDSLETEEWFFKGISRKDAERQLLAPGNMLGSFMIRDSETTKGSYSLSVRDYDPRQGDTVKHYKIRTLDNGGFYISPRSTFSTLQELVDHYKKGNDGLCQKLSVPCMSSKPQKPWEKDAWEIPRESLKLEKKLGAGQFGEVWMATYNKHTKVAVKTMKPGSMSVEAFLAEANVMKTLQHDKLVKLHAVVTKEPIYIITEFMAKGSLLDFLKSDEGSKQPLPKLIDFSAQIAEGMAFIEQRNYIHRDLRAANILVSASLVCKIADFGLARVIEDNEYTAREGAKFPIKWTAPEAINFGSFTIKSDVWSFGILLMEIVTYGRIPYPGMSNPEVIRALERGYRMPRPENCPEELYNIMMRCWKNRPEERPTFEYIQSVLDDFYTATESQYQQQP

Fyn = Fyn (UniProt P06241); assay: as above
Sequence of Fyn (P06241 whole entry, looked up): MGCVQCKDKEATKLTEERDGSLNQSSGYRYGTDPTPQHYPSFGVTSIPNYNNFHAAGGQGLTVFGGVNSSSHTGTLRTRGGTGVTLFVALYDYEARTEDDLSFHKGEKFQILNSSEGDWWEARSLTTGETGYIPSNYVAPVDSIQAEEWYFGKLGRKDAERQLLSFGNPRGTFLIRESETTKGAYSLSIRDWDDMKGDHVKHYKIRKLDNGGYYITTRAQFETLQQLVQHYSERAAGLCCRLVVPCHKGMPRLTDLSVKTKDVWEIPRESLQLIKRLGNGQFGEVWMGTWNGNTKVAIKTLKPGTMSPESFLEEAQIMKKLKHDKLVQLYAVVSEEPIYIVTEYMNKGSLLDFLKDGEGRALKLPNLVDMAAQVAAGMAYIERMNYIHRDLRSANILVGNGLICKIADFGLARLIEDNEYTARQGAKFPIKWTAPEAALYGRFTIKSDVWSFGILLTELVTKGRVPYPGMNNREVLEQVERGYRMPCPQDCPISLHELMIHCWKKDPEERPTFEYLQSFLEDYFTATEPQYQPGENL

Jak2 = Jak2 (UniProt O60674); assay: as above
c-Abl (mouse) = assay: as above
Fes = Fes (UniProt P07332); assay: as above
Sequence of Fes (P07332 whole entry, looked up): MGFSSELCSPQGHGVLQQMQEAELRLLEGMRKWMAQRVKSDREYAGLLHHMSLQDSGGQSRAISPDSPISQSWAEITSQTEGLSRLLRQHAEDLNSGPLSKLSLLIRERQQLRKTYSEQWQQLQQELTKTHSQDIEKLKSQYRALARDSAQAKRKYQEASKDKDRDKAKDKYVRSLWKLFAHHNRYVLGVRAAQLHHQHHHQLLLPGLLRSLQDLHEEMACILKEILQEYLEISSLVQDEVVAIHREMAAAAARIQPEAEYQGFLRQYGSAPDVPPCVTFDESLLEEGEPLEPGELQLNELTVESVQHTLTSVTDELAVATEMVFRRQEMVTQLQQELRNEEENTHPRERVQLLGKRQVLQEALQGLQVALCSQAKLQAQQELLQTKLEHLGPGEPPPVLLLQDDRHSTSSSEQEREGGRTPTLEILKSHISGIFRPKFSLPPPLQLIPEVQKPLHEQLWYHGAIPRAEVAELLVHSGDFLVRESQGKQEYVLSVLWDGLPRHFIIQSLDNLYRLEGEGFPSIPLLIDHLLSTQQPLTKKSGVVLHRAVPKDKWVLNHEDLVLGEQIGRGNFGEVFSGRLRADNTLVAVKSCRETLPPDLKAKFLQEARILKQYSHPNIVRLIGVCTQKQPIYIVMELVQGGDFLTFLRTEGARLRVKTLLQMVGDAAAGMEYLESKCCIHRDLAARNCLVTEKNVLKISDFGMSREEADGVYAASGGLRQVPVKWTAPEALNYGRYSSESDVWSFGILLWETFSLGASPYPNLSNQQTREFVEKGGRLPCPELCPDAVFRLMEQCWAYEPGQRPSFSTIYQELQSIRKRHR

Fer (mouse) = assay: as above
FGFR3 = FGFR3 (UniProt P22607); assay: as above
MERTK = MERTK (UniProt Q12866); assay: as above
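For SH2 binding enrichment of the phosphorylated peptide, bacterial display in this document: peptide library displayed on the E. coli surface as eCPX fusions, selected cells deep-sequenced, score is each peptide's frequency after selection divided by its frequency in the input.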
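For phosphorylation enrichment, bacterial display in this document: 11-residue human phosphosite peptides and single-mutation variants displayed on the E. coli surface, counted by deep sequencing, each peptide's frequency after selection divided by its frequency in the unselected input library; frequency after pTyr selection over input frequency; kinase dosed for 20-30% of maximal phosphorylation in three min.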

Sequence of Grb2 SH2 (P62993 whole entry, looked up): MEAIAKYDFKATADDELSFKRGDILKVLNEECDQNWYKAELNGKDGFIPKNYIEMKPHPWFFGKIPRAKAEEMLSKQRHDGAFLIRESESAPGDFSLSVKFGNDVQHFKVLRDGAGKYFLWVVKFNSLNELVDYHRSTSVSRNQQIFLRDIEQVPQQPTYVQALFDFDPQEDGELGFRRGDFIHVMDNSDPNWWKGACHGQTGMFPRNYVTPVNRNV

Sequence | SH2 binding enrichment (c-Src SH2) | SH2 binding enrichment (Grb2 SH2) | SH2 binding enrichment (SHP2-C SH2) | phosphorylation enrichment (EPHB2) | phosphorylation enrichment (c-Src) | phosphorylation enrichment (FGFR1) | phosphorylation enrichment (EPHB1) | phosphorylation enrichment (AncSZ) | phosphorylation enrichment (Hck) | phosphorylation enrichment (Fyn) | phosphorylation enrichment (Jak2) | phosphorylation enrichment (c-Abl (mouse)) | phosphorylation enrichment (Fes) | phosphorylation enrichment (Fer (mouse)) | phosphorylation enrichment (FGFR3) | phosphorylation enrichment (MERTK)
RHFTGCRIELQ [INSR_Y818_Y818C] | 0.714 | 0.835 | 0.771 | 0.778 | 0.508 | 0.488 | 0.545 | 0.779 | 0.613 | 0.403 | 0.884 | 0.665 | 1.49 | 0.503 | 0.672 | 0.421
EKEKEYMLPLD [DNM2_Y563_K562E] | 0.581 | 0.834 | 0.729 | 0.414 | 0.358 | 0.443 | 0.48 | 1.1 | 0.469 | 0.421 | 0.743 | 0.479 | 0.959 | 0.388 | 0.604 | 0.442
FPKAHYHWLVL [APTX_Y214_R213H_YF] | 1.54 | 1.86 | 1.7 | 0.491 | 0.396 | 2.69 | 0.448 | 0.819 | 0.444 | 0.447 | 0.864 | 0.716 | 1.29 | 0.645 | 1.87 | 0.619
LEFAKYGSLRG [RET_Y809_V804L_YF] | 0.505 | 0.907 | 0.73 | 0.792 | 0.43 | 0.316 | 0.37 | 0.567 | 0.567 | 0.398 | 0.593 | 0.454 | 0.644 | 0.373 | 0.459 | 0.388
PEFINYHQHNS [BTK_Y361_L358F] | 0.608 | 0.659 | 0.659 | 0.515 | 1.03 | 0.821 | 0.299 | 0.709 | 0.485 | 0.552 | 0.933 | 0.491 | 0.607 | 0.335 | 0.947 | 0.507
PVQAAYQKVVD [HBB_Y131_A136D] | 0.719 | 1.12 | 0.697 | 1.06 | 0.458 | 0.655 | 0.493 | 0.831 | 0.931 | 0.621 | 0.577 | 0.432 | 1.01 | 0.384 | 0.515 | 0.38
MASISYDYCRV [BST2_Y6_T4I] | 1.22 | 1.1 | 0.77 | 3.29 | 0.589 | 1.32 | 4.17 | 1.58 | 1.02 | 0.565 | 1.09 | 0.708 | 0.908 | 2.33 | 1.1 | 0.75
QRIFQYIRSRF [DYRK1B_Y273_Q275R_YF] | 0.521 | 0.765 | 0.467 | 0.795 | 1.36 | 0.75 | 0.817 | 1.07 | 0.83 | 0.837 | 1.24 | 0.988 | 1.26 | 0.827 | 0.695 | 0.975
SGKSEYLLPVA [MYLK_Y611_R607G] | 0.383 | 0.801 | 0.465 | 0.424 | 0.453 | 0.456 | 0.486 | 1.08 | 0.362 | 0.453 | 0.721 | 1.17 | 0.89 | 0.45 | 0.554 | 0.397
SVTWTYSPALN [TP53_Y126_C124W] | 0.319 | 0.567 | 0.492 | 0.786 | 0.347 | 0.461 | 0.569 | 1.31 | 0.467 | 0.387 | 0.986 | 0.698 | 1.11 | 0.532 | 0.862 | 0.289
LENSTYQFICV [CRB1_Y760_R764C_YF] | 0.457 | 0.9 | 0.739 | 2.39 | 1.84 | 3.43 | 4.2 | 2.12 | 3.46 | 2.23 | 1.37 | 1.12 | 1.79 | 8.22 | 3.21 | 2.49
NKEAICSGFIR [SMCHD1_Y283_Y283C_YF] | 0.5 | 0.827 | 0.664 | 0.398 | 0.451 | 0.496 | 0.448 | 0.693 | 0.501 | 0.39 | 0.802 | 0.741 | 0.952 | 0.467 | 0.53 | 0.455
QEKKGYFEDRC [GLUL_Y336_R341C] | 0.589 | 1.5 | 0.948 | 0.631 | 0.613 | 0.804 | 0.522 | 1.06 | 0.655 | 0.609 | 1 | 0.843 | 1.29 | 0.519 | 0.716 | 0.799
QGGRCYMMIVD [GAA_Y438_R437C] | 0.957 | 0.696 | 0.674 | 1.29 | 1.03 | 0.815 | 1.35 | 2.31 | 0.769 | 0.87 | 2.11 | 1.81 | 2.69 | 0.948 | 1.83 | 0.928
RVGVDYEGGGC [PLOD1_Y675] | 0.773 | 1.39 | 0.884 |  | 0.287 |  |  |  |  |  | 0.377 | 0.239 |  |  |  | 
DCPASYKKKSM [PDGFRA_Y768_R764C] |  |  |  | 0.189 | 0.253 | 0.416 | 0.591 | 0.394 | 0.368 | 0.283 | 0.168 | 0.337 | 0.323 | 0.384 | 0.202 | 0.363
